{"source": "paper PMC5025763", "about": "“Bach2–Batf interactions control Th2-type immune response by regulating the IL-4 amplification loop” (Nature Communications, 2016)", "binders": {"B1": {"name": "MafK (natural protein)", "chain": "not shown", "notes": "MafK (small Maf protein); Named only in the discussion as measured in the authors' AlphaScreen system"}}, "target": "T1, Flag-tagged Bach2 protein (mouse, UniProt P97303 1-839)", "T1 construct": "Bach2, mouse (murine Bach2 cDNA is named in the methods of the luciferase assay); The species is stated only for the cDNA cloned into pCMV-Myc; also called WT Bach2 protein; BTB and CNC homology 1, basic leucine zipper transcription factor 2; source: cell-free protein synthesis", "T1 sequence (P97303 whole entry)": "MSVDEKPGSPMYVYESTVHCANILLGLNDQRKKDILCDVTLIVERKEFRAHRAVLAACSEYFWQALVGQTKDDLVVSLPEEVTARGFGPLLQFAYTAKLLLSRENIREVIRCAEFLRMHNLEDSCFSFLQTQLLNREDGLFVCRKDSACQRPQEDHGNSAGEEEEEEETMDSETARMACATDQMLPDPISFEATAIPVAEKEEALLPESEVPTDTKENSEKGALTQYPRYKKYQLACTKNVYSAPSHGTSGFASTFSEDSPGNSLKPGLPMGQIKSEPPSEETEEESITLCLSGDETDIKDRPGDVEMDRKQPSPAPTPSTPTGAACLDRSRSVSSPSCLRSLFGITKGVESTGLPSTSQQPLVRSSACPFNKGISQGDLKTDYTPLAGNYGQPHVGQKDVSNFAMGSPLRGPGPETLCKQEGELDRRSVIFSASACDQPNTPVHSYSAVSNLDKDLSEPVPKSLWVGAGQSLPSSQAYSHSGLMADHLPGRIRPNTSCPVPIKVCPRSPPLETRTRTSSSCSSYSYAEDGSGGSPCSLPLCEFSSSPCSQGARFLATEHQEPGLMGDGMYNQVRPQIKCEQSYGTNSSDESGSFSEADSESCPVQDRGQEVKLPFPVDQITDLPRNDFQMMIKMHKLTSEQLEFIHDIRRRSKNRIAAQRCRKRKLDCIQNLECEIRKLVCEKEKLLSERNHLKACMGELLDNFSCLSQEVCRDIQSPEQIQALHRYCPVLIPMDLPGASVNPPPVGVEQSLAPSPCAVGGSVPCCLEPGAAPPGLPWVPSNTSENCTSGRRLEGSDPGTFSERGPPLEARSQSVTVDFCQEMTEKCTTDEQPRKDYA", "experiment": "AlphaScreen or HTRF; Flag-tagged Bach2 mixed with biotinylated transcription factors, 26 °C for 1 h; then protein A-conjugated acceptor beads, streptavidin-coated donor beads and anti-Flag M2 antibody, 26 °C for 1 h; proteins from cell-free synthesis; intensities relative to DHFR", "conditions": "partners not purified"}
{"binder": "B1", "values": [{"measurement": "fold binding strength against the Batf–Bach2 interaction", "result": "~20", "unit": "fold"}]}
